From patent US20100015126A1, “Methods of Binding of Cross-Beta Structures By Chaperones” (priority 2006, published 2010)

What was measured:
[1] = biological target: T1, Escherichia coli HSP70 family member DnaK (Escherichia coli, UniProt P0A6Y8); experiment: ELISA: binding of DnaK to immobilized (misfolded) protein ligands
T1 construct: purchased Stressgen (Ann Arbor, Mich., USA) SPP-630
Experimental: Recombinant Escherichia coli (E. coli) DnaK was purchased from Stressgen (Ann Arbor, Mich., USA; SPP-630). For the binding studies first lot B502468 (100 μg, lot A) and then lot 05240609 (200 μg, lot B) was used.
(§1) Binding of chaperones to immobilized (misfolded) protein ligands was determined using an enzyme linked immuno sorbent assay (ELISA) approach. For this purpose 50 μl/well of potential ligands at indicated concentrations or coat buffer only for control and background measurement purposes, were coated overnight at 4° C. or coated for 1 h at room temperature, with motion, in 50 mM NaHCO3 pH 9.6 (coat buffer). In general, ligands were coated at 5 μg/ml, unless stated otherwise. For example, BiP binding peptides 6BB# and oxLDL were coated at 50 μg/ml. Native haemoglobin (Sigma-Aldrich, H7379), albumin, IgIV Gammagard and ovalbumin controls were prepared from lyophilized stocks. The controls were prepared by dissolving lyophilized proteins at 1 mg/ml in PBS upon resuspending by pipetting, followed by a 30 minutes period at the roller device, at room temperature. The protein solutions were centrifuged for 10 minutes at 16,000*g and diluted in coat buffer. After coating the plates were washed at least three times with 50 mM Tris-HCl pH 7.3, 150 mM NaCl, 0.1% v/v Tween20, and blocked with Blocking reagent (Roche Diagnostics, Almere, The Netherlands; 11112589001), for 1 h at room temperature, with motion. Plates were washed three times and incubated in triplicate with indicated chaperone dilution series, at 50 μl/well, for 1 h at room temperature, with constant motion. For HSP90, 5 mM DTT is incorporated in the binding buffer (PBS/0.1% Tween20) to avoid unwanted disulfide bond formation of the HSP90. Plates were washed three times and incubated with anti-FLAG antibody (mouse antibody, M2, peroxidase conjugate; Sigma, A-8592) for BiP-FLAG-His, anti-His-tag antibody (Mouse Monoclonal Antibody, Cat. No. 70796, Novagen [0.2 mg/ml]) for HSP60, a 1:1 mix of 500-fold diluted anti-HSP90beta antibodies (Stressgen, SPA-643 [mouse monoclonal IgM], SPA-646 [rabbit polyclonal]) for HSP90 and an anti-DnaK antibody (Stressgen, 023SPA-880D [mouse monoclonal antibody]) for DnaK. After four wash cycles, secondary antibodies were added to the wells when required, 50 μl/well, for 45′ at room temperature, with motion. RAMPO and SWARPO were used at 3000 times dilution. […] In a second experiment with more immobilized misfolded proteins and controls, the detection of bound HSP90 with the mix of two anti-HSP90 antibodies was achieved by mixing 1:1500 SWARPO with 1:3000 RAMPO. After 5 washes with wash buffer followed by two washes with PBS, binding of antibodies was assessed. Bound anti-FLAG-PO, peroxidase-conjugated rabbit anti-mouse immunoglobulins (RAMPO, P0260, DAKOCytomation, Glostrup, Denmark) or peroxidase-coupled swine anti-rabbit immunoglobulins (SWARPO, P0217, DAKOCytomation) was visualized with tetramethylbenzidine (TMB, #45.01.20,/#45.014.01, Biosource, Nivelles, Belgium). The reaction was stopped after 5 minutes with 1% H2SO4 in H2O. Plates were read at 450 nm. Triplicates were averaged and standard deviations calculated. Background signals obtained with buffer-coated wells were subtracted (binding of primary antibody to empty wells), as well as background signals obtained with ligand-coated wells in which the chaperones were omitted (binding of primary and secondary antibody to coated ligands). Subsequently, sub-optimal concentrations of chaperones for binding to misfolded protein ligands are determined, and these concentrations are used for inhibition studies. […] We have previously identified that a sub-fraction of IgIV molecules has affinity for misfolded proteins comprising crossbeta structure (pending patent application). Moreover, we identified that the sub-fraction of IgIV molecules directly binds to crossbeta structure and/or crossbeta structure induced conformation (not shown; pending patent application). […]

human BiP [2] = biological target: T2, human BiP (Homo sapiens, UniProt P11021); experiment: Competition ELISA: BiP binding to misfolded proteins under influence of crossbeta binding compounds; settings: fixed sub-optimal BiP concentration
T2 construct: The human BiP gene except the signal peptide encoding region was obtained from Geneart (Germany); linker […]; made in house; host or cells: HEK 293E cells, transient transfection, PABC674 vector; secreted into the medium
T2 sequence (P11021 19-654): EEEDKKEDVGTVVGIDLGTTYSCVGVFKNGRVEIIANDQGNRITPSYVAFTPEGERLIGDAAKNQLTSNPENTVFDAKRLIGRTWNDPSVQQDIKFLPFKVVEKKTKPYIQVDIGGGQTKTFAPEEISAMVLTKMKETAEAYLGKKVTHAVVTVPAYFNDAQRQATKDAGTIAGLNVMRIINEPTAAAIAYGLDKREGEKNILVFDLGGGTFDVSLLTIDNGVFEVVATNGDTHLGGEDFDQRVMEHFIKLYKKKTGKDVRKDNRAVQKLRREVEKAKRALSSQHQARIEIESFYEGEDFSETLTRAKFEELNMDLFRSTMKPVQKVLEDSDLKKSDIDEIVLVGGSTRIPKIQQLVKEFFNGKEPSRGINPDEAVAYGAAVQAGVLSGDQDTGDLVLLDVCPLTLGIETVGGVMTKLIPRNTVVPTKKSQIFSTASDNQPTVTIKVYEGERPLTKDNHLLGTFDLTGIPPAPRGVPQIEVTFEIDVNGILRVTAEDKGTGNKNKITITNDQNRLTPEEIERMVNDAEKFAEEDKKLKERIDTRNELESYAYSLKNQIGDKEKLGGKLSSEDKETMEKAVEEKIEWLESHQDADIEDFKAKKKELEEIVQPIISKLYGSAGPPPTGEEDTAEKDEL
Experimental: Binding of chaperones to immobilized (misfolded) protein ligands was determined using an enzyme linked immuno sorbent assay (ELISA) approach. For this purpose 50 μl/well of potential ligands at indicated concentrations or coat buffer only for control and background measurement purposes, were coated overnight at 4° C. or coated for 1 h at room temperature, with motion, in 50 mM NaHCO3 pH 9.6 (coat buffer). In general, ligands were coated at 5 μg/ml, unless stated otherwise. For example, BiP binding peptides 6BB# and oxLDL were coated at 50 μg/ml. Native haemoglobin (Sigma-Aldrich, H7379), albumin, IgIV Gammagard and ovalbumin controls were prepared from lyophilized stocks. The controls were prepared by dissolving lyophilized proteins at 1 mg/ml in PBS upon resuspending by pipetting, followed by a 30 minutes period at the roller device, at room temperature. The protein solutions were centrifuged for 10 minutes at 16,000*g and diluted in coat buffer. After coating the plates were washed at least three times with 50 mM Tris-HCl pH 7.3, 150 mM NaCl, 0.1% v/v Tween20, and blocked with Blocking reagent (Roche Diagnostics, Almere, The Netherlands; 11112589001), for 1 h at room temperature, with motion. Plates were washed three times and incubated in triplicate with indicated chaperone dilution series, at 50 μl/well, for 1 h at room temperature, with constant motion. For HSP90, 5 mM DTT is incorporated in the binding buffer (PBS/0.1% Tween20) to avoid unwanted disulfide bond formation of the HSP90. […] After four wash cycles, secondary antibodies were added to the wells when required, 50 μl/well, for 45′ at room temperature, with motion. RAMPO and SWARPO were used at 3000 times dilution. […] In a second experiment with more immobilized misfolded proteins and controls, the detection of bound HSP90 with the mix of two anti-HSP90 antibodies was achieved by mixing 1:1500 SWARPO with 1:3000 RAMPO. After 5 washes with wash buffer followed by two washes with PBS, binding of antibodies was assessed. Bound anti-FLAG-PO, peroxidase-conjugated rabbit anti-mouse immunoglobulins (RAMPO, P0260, DAKOCytomation, Glostrup, Denmark) or peroxidase-coupled swine anti-rabbit immunoglobulins (SWARPO, P0217, DAKOCytomation) was visualized with tetramethylbenzidine (TMB, #45.01.20,/#45.014.01, Biosource, Nivelles, Belgium). The reaction was stopped after 5 minutes with 1% H2SO4 in H2O. Plates were read at 450 nm. Triplicates were averaged and standard deviations calculated. Background signals obtained with buffer-coated wells were subtracted (binding of primary antibody to empty wells), as well as background signals obtained with ligand-coated wells in which the chaperones were omitted (binding of primary and secondary antibody to coated ligands). Subsequently, sub-optimal concentrations of chaperones for binding to misfolded protein ligands are determined, and these concentrations are used for inhibition studies.
In a subsequent study we analysed whether BiP interacts directly with the crossbeta structure, by performing ELISA binding studies with a fixed sub-optimal concentration of BiP and concentration series of crossbeta binding compounds. The results are depicted in FIGS. 12, 13 and Table 7. Binding of BiP without added crossbeta binding compounds was set to 100%.

human BiP [3] = biological target: T2, human BiP; experiment: ELISA: binding of BiP-FLAG-His to immobilized (misfolded) protein ligands; settings: ligands coated at 5 μg/ml; 6BB peptides and oxLDL 50 μg/ml
Experimental: Enzyme Linked Immunosorbent Assay for Testing of Chaperone Binding to Misfolded Proteins
as §1

[4] = biological target: T3, human mitochondrial HSP60 (Homo sapiens, UniProt P10809); experiment: ELISA: binding of HSP60 to immobilized (misfolded) protein ligands
T3 construct: Dr. W. van Eden, Utrecht University; host or cells: E. coli
T3 sequence (P10809 27-573): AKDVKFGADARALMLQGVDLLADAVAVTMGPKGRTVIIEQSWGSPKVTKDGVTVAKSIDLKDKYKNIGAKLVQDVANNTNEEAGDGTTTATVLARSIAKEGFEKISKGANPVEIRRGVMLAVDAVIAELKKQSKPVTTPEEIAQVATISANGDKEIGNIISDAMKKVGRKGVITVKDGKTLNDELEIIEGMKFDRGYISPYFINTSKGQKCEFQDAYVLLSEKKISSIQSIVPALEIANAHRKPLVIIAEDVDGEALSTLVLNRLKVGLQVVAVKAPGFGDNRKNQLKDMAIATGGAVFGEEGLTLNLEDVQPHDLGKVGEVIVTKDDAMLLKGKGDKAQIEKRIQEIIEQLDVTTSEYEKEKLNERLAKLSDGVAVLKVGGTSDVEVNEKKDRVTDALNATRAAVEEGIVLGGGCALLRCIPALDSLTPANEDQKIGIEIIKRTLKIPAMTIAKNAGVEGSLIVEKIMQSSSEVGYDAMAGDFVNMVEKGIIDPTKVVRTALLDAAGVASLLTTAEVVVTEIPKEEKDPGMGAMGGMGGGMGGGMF
Experimental: Recombinant human HSP60 with N-terminal His-tag was a kind gift of Dr. R. van der Zee and Prof. Dr. W. van Eden (Institute of Infectious Diseases and Immunology, Faculty of Veterinary Medicine, Utrecht University, Utrecht, The Netherlands), and was supplied in lyophilized form. The HSP60 was produced in E. coli and purified using Nickel-Sepharose. The HSP60 was lyophilized from 20-40 mM ammonium-bicarbonate solution, after purification, and stored at −20° C. The construct lacks the mitochondrial signal sequence. […] Before use, the lyophilized protein is dissolved at room temperature at 1 mg/ml in 20-40 mM NH4HCO3, resulting in a pH of 7.0. Aliquots are stored at −20° C. or −80° C. The mitochondrial HSP60 is a functional dimer of heptamers (MW(HSP60 monomer)=˜58 kDa), and is involved in multimer protein assembling and aids in transport of unfolded proteins across membranes. For the binding studies, at two occasions separate HSP60 solutions were prepared originating from the same batch of purified protein, lyophilized in separate Eppendorf cups.
Binding of chaperones to immobilized (misfolded) protein ligands was determined using an enzyme linked immuno sorbent assay (ELISA) approach. For this purpose 50 μl/well of potential ligands at indicated concentrations or coat buffer only for control and background measurement purposes, were coated overnight at 4° C. or coated for 1 h at room temperature, with motion, in 50 mM NaHCO3 pH 9.6 (coat buffer). In general, ligands were coated at 5 μg/ml, unless stated otherwise. For example, BiP binding peptides 6BB# and oxLDL were coated at 50 μg/ml. Native haemoglobin (Sigma-Aldrich, H7379), albumin, IgIV Gammagard and ovalbumin controls were prepared from lyophilized stocks. The controls were prepared by dissolving lyophilized proteins at 1 mg/ml in PBS upon resuspending by pipetting, followed by a 30 minutes period at the roller device, at room temperature. The protein solutions were centrifuged for 10 minutes at 16,000*g and diluted in coat buffer. After coating the plates were washed at least three times with 50 mM Tris-HCl pH 7.3, 150 mM NaCl, 0.1% v/v Tween20, and blocked with Blocking reagent (Roche Diagnostics, Almere, The Netherlands; 11112589001), for 1 h at room temperature, with motion. Plates were washed three times and incubated in triplicate with indicated chaperone dilution series, at 50 μl/well, for 1 h at room temperature, with constant motion. For HSP90, 5 mM DTT is incorporated in the binding buffer (PBS/0.1% Tween20) to avoid unwanted disulfide bond formation of the HSP90. Plates were washed three times and incubated with anti-FLAG antibody (mouse antibody, M2, peroxidase conjugate; Sigma, A-8592) for BiP-FLAG-His, anti-His-tag antibody (Mouse Monoclonal Antibody, Cat. No. 70796, Novagen [0.2 mg/ml]) for HSP60, a 1:1 mix of 500-fold diluted anti-HSP90beta antibodies (Stressgen, SPA-643 [mouse monoclonal IgM], SPA-646 [rabbit polyclonal]) for HSP90 and an anti-DnaK antibody (Stressgen, 023SPA-880D [mouse monoclonal antibody]) for DnaK. After four wash cycles, secondary antibodies were added to the wells when required, 50 μl/well, for 45′ at room temperature, with motion. RAMPO and SWARPO were used at 3000 times dilution. […] In a second experiment with more immobilized misfolded proteins and controls, the detection of bound HSP90 with the mix of two anti-HSP90 antibodies was achieved by mixing 1:1500 SWARPO with 1:3000 RAMPO. After 5 washes with wash buffer followed by two washes with PBS, binding of antibodies was assessed. Bound anti-FLAG-PO, peroxidase-conjugated rabbit anti-mouse immunoglobulins (RAMPO, P0260, DAKOCytomation, Glostrup, Denmark) or peroxidase-coupled swine anti-rabbit immunoglobulins (SWARPO, P0217, DAKOCytomation) was visualized with tetramethylbenzidine (TMB, #45.01.20,/#45.014.01, Biosource, Nivelles, Belgium). The reaction was stopped after 5 minutes with 1% H2SO4 in H2O. Plates were read at 450 nm. […]

T1 sequence (P0A6Y8 whole entry): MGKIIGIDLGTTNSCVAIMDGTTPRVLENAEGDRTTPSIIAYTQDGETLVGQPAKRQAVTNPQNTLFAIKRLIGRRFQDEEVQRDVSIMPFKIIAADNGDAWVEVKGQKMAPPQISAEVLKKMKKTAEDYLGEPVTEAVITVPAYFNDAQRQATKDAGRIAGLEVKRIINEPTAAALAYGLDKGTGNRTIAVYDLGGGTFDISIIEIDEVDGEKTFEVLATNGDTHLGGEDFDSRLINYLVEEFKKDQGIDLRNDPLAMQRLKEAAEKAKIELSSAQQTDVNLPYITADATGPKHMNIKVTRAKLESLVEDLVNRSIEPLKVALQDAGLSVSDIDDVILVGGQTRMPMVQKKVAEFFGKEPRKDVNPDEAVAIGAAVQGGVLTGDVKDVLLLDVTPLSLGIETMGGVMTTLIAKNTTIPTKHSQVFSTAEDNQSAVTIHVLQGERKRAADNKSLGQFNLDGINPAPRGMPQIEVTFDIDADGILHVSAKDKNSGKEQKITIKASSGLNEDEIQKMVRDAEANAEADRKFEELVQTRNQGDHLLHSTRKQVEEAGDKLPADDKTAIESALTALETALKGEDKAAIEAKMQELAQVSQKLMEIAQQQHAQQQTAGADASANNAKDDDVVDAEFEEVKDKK

| Substance | Binding of concentration series of DnaK to coated ligand [1] | Influence of Congo red on interaction of BiP with misfolded protein (human BiP [2]; concentration series of Congo red) | Influence of ThS on interaction of BiP with misfolded protein (human BiP [2]; concentration series of ThS) | Influence of ThT on interaction of BiP with misfolded protein (human BiP [2]; concentration series of ThT) | Binding of concentration series of BiP to coated ligand (human BiP [3]) | Binding of concentration series of HSP60 to coated ligand [4] |
| --- | --- | --- | --- | --- | --- | --- |
| FWGLWPWE [6BB11] | did not bind | ↓ (a ↓ sign refers to inhibited abolished binding of BiP) | ↓ (a ↓ sign refers to inhibited abolished binding of BiP) | ↓ (a ↓ sign refers to inhibited abolished binding of BiP) | has been established |  |
| RRRAA [6BB13] | did not bind |  |  |  | no BiP binding was observed |  |
| YVDRFIGW [6BB8] | did not bind |  |  |  | no BiP binding was observed |  |
| fibrin: fibrin immobilized in wells from fibrinogen and factor IIa | has been established |  |  |  | has been established | has been established |
